Results reported in the supplement of paper PMC9112550, “Optimization of the antimicrobial peptide Bac7 by deep mutational scanning” (BMC Biology, 2022).

Test system: Escherichia coli TOP10
Assay: shrunken log2 fold change of peptide-encoding DNA abundance (4.5 h post-induction vs induction); higher = less antimicrobial activity (less host growth inhibition)
Details: time post-induction: 4.5 h; library: site-saturation at positions 5, 18, 19, 20
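Further: peptides expressed intracellularly from a pBAD plasmid library in pooled LB shake-flask culture, induced with 0.3% L-arabinose, DNA abundance read by NGS, three biological replicates, DESeq2 with apeglm shrinkage.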

Sequence	shrunken log2 fold change
RRIRQRPPRLPRPRPRPLHDPRP	-0.346
RRIRQRPPRLPRPRPRPLHTPRP	0.0932
RRIRQRPPRLPRPRPRPLIKPRP	-0.249
RRIRQRPPRLPRPRPRPLIWPRP	0.855
RRIRQRPPRLPRPRPRPLLHPRP	-0.182
RRIRQRPPRLPRPRPRPLLIPRP	-0.141
RRIRQRPPRLPRPRPRPLLVPRP	-0.295
RRIRQRPPRLPRPRPRPLMNPRP	-0.131
RRIRQRPPRLPRPRPRPLNCPRP	-0.0264
RRIRQRPPRLPRPRPRPLNVPRP	-0.0218
RRIRQRPPRLPRPRPRPLQLPRP	-0.126
RRIRQRPPRLPRPRPRPLQSPRP	-0.0698
RRIRQRPPRLPRPRPRPLTKPRP	0.184
RRIRQRPPRLPRPRPRPLVFPRP	-0.0658
RRIRQRPPRLPRPRPRPLVVPRP	0.0686
RRIRQRPPRLPRPRPRPMAAPRP	0.127
RRIRQRPPRLPRPRPRPMDNPRP	-0.367
RRIRQRPPRLPRPRPRPMDVPRP	-0.0102
RRIRQRPPRLPRPRPRPMIDPRP	-0.517
RRIRQRPPRLPRPRPRPMKDPRP	-0.447
RRIRQRPPRLPRPRPRPMLKPRP	-0.106
RRIRQRPPRLPRPRPRPMMYPRP	0.0473
RRIRQRPPRLPRPRPRPMNDPRP	-0.227
RRIRQRPPRLPRPRPRPMPHPRP	-0.0205
RRIRQRPPRLPRPRPRPMPSPRP	-0.162

Sequence	shrunken log2 fold change
RRIRQRPPRLPRPRPRPMPTPRP	0.0311
RRIRQRPPRLPRPRPRPMQHPRP	-0.165
RRIRQRPPRLPRPRPRPMREPRP	0.0211
RRIRQRPPRLPRPRPRPMRKPRP	0.0266
RRIRQRPPRLPRPRPRPMSHPRP	0.00245
RRIRQRPPRLPRPRPRPMTQPRP	-0.0451
RRIRQRPPRLPRPRPRPMVRPRP	-0.17
RRIRQRPPRLPRPRPRPMWPPRP	0.269
RRIRQRPPRLPRPRPRPMWRPRP	0.279
RRIRQRPPRLPRPRPRPMWSPRP	0.0215
RRIRQRPPRLPRPRPRPMWTPRP	0.158
RRIRQRPPRLPRPRPRPMYVPRP	-0.0439
RRIRQRPPRLPRPRPRPNAAPRP	0.0416
RRIRQRPPRLPRPRPRPNALPRP	0.023
RRIRQRPPRLPRPRPRPNASPRP	-0.015
RRIRQRPPRLPRPRPRPNATPRP	0.251
RRIRQRPPRLPRPRPRPNCKPRP	-0.555
RRIRQRPPRLPRPRPRPNEEPRP	2.87
RRIRQRPPRLPRPRPRPNEIPRP	-0.217
RRIRQRPPRLPRPRPRPNHAPRP	-0.474
RRIRQRPPRLPRPRPRPNHNPRP	-0.893
RRIRQRPPRLPRPRPRPNHRPRP	-0.0657
RRIRQRPPRLPRPRPRPNIKPRP	-0.558
RRIRQRPPRLPRPRPRPNISPRP	-0.565
RRIRQRPPRLPRPRPRPNKEPRP	0.00917

Sequence	shrunken log2 fold change
RRIRQRPPRLPRPRPRPNKNPRP	-0.335
RRIRQRPPRLPRPRPRPNPEPRP	0.0266
RRIRQRPPRLPRPRPRPNQEPRP	-0.0578
RRIRQRPPRLPRPRPRPNQQPRP	-0.0802
RRIRQRPPRLPRPRPRPNRHPRP	0.115
RRIRQRPPRLPRPRPRPNSGPRP	-0.0316
RRIRQRPPRLPRPRPRPNTCPRP	-1.35
RRIRQRPPRLPRPRPRPNTHPRP	-0.203
RRIRQRPPRLPRPRPRPNTMPRP	0.12
RRIRQRPPRLPRPRPRPNVAPRP	0.236
RRIRQRPPRLPRPRPRPNVQPRP	0.031
RRIRQRPPRLPRPRPRPNVYPRP	-0.222
RRIRQRPPRLPRPRPRPNYFPRP	-0.149
RRIRQRPPRLPRPRPRPPAHPRP	0.0556
RRIRQRPPRLPRPRPRPPARPRP	0.23
RRIRQRPPRLPRPRPRPPGDPRP	0.194
RRIRQRPPRLPRPRPRPPIYPRP	-0.129
RRIRQRPPRLPRPRPRPPKFPRP	0.117
RRIRQRPPRLPRPRPRPPKYPRP	-0.313
RRIRQRPPRLPRPRPRPPLGPRP	0.547
RRIRQRPPRLPRPRPRPPLKPRP	-0.0174
RRIRQRPPRLPRPRPRPPLSPRP	0.0729
RRIRQRPPRLPRPRPRPPLWPRP	0.494
RRIRQRPPRLPRPRPRPPMAPRP	0.0822
RRIRQRPPRLPRPRPRPPMVPRP	-0.0885

Sequence	shrunken log2 fold change
RRIRQRPPRLPRPRPRPPNRPRP	-0.131
RRIRQRPPRLPRPRPRPPQHPRP	0.718
RRIRQRPPRLPRPRPRPPRDPRP	1.25
RRIRQRPPRLPRPRPRPPSPPRP	0.426
RRIRQRPPRLPRPRPRPPTNPRP	0.201
RRIRQRPPRLPRPRPRPPVKPRP	0.0851
RRIRQRPPRLPRPRPRPPWAPRP	0.577
RRIRQRPPRLPRPRPRPPWHPRP	0.187
RRIRQRPPRLPRPRPRPPWMPRP	0.172
RRIRQRPPRLPRPRPRPPYPPRP	-0.0407
RRIRQRPPRLPRPRPRPPYTPRP	-0.552
RRIRQRPPRLPRPRPRPQAEPRP	4.1
RRIRQRPPRLPRPRPRPQALPRP	0.0286
RRIRQRPPRLPRPRPRPQEGPRP	0.0274
RRIRQRPPRLPRPRPRPQEMPRP	-0.119
RRIRQRPPRLPRPRPRPQFAPRP	-0.00983
RRIRQRPPRLPRPRPRPQFIPRP	-0.0627
RRIRQRPPRLPRPRPRPQFSPRP	-0.525
RRIRQRPPRLPRPRPRPQGPPRP	0.189
RRIRQRPPRLPRPRPRPQHAPRP	-0.476
RRIRQRPPRLPRPRPRPQHVPRP	0.00911
RRIRQRPPRLPRPRPRPQIDPRP	-0.0357
RRIRQRPPRLPRPRPRPQIHPRP	-0.246
RRIRQRPPRLPRPRPRPQKGPRP	0.011
RRIRQRPPRLPRPRPRPQMIPRP	-0.0977

Sequence	shrunken log2 fold change
RRIRQRPPRLPRPRPRPQPEPRP	-0.0839
RRIRQRPPRLPRPRPRPQQGPRP	-0.147
RRIRQRPPRLPRPRPRPQSKPRP	-0.574
RRIRQRPPRLPRPRPRPQSLPRP	-0.0818
RRIRQRPPRLPRPRPRPQTEPRP	-0.128
RRIRQRPPRLPRPRPRPQVYPRP	-0.0731
RRIRQRPPRLPRPRPRPQWLPRP	0.0957
RRIRQRPPRLPRPRPRPQYKPRP	-0.314
RRIRQRPPRLPRPRPRPQYPPRP	-0.199
RRIRQRPPRLPRPRPRPRAYPRP	-0.0505
RRIRQRPPRLPRPRPRPRCFPRP	-0.0694
RRIRQRPPRLPRPRPRPRCLPRP	0.176
RRIRQRPPRLPRPRPRPRDPPRP	0.604
RRIRQRPPRLPRPRPRPRDWPRP	1.63
RRIRQRPPRLPRPRPRPRFTPRP	0.184
RRIRQRPPRLPRPRPRPRGIPRP	-0.107
RRIRQRPPRLPRPRPRPRHIPRP	-0.319
RRIRQRPPRLPRPRPRPRHRPRP	0.16
RRIRQRPPRLPRPRPRPRHVPRP	-0.14
RRIRQRPPRLPRPRPRPRISPRP	-0.176
RRIRQRPPRLPRPRPRPRKCPRP	0.158
RRIRQRPPRLPRPRPRPRKGPRP	0.353
RRIRQRPPRLPRPRPRPRKMPRP	-0.0294
RRIRQRPPRLPRPRPRPRLCPRP	0.423
RRIRQRPPRLPRPRPRPRLGPRP	0.272

Sequence	shrunken log2 fold change
RRIRQRPPRLPRPRPRPRMLPRP	-0.0148
RRIRQRPPRLPRPRPRPRNNPRP	-0.173
RRIRQRPPRLPRPRPRPRNPPRP	0.375
RRIRQRPPRLPRPRPRPRPGPRP	0.286
RRIRQRPPRLPRPRPRPRPIPRP	0.385
RRIRQRPPRLPRPRPRPRPMPRP	0.303
RRIRQRPPRLPRPRPRPRPSPRP	0.112
RRIRQRPPRLPRPRPRPRQGPRP	0.0279
RRIRQRPPRLPRPRPRPRRGPRP	0.502
RRIRQRPPRLPRPRPRPRRMPRP	0.455
RRIRQRPPRLPRPRPRPRRVPRP	0.252
RRIRQRPPRLPRPRPRPRTEPRP	2.94
RRIRQRPPRLPRPRPRPRVAPRP	0.337
RRIRQRPPRLPRPRPRPRVDPRP	0.241
RRIRQRPPRLPRPRPRPRWDPRP	0.29
RRIRQRPPRLPRPRPRPRWQPRP	0.0759
RRIRQRPPRLPRPRPRPRYAPRP	0.0355
RRIRQRPPRLPRPRPRPRYFPRP	-0.247
RRIRQRPPRLPRPRPRPRYRPRP	-0.419
RRIRQRPPRLPRPRPRPSALPRP	-0.0016
RRIRQRPPRLPRPRPRPSAPPRP	0.175
RRIRQRPPRLPRPRPRPSAVPRP	-0.126
RRIRQRPPRLPRPRPRPSCEPRP	0.0555
RRIRQRPPRLPRPRPRPSCHPRP	-0.253
RRIRQRPPRLPRPRPRPSCQPRP	-0.834
